Substrate in the data set: O=[N+]([O-])c1ccc(O[C@H]2O[C@H](CO)[C@@H](O[C@H]3O[C@H](CO)[C@@H](O)[C@H](O)[C@H]3O)[C@H](O)[C@H]2O)cc1
The data set can be described thus: purified protein. The settings on record: 50 mM MOPS pH 7.0, 20 mM NaCl, 1 mM DTT, 30 °C, substrate 0-10 mM. The class given is biochemical, Lactiplantibacillus plantarum.

As usually defined, the Km is the substrate concentration at which the rate is half of its maximum. The term Vmax denotes the top rate of the reaction or transport when substrate is in excess. Broadly, the kcat is the maximal rate divided by the concentration of active sites.

B1: Lp_2757, maltogenic α-amylase (Lactiplantibacillus plantarum WCFS1) (protein)
chain: MQLAGIRHRPESEDTAVLAAHQLQVRLQTARDDVAQVEILFADSYLWQEGTTALERRIMQPGLATQGNQYWQTTLTVPTNRVVYAFLITDTIGATVGYGEGGFFDDVATNWQTVGNYFHMPYMHVSDAELPPAWVKETVWYQIFPERFANGVRQNDPANVQPWGAGRVHRDSFYGGDLPGITAHLDDLAALGVNGLYLCPIFTSPSNHKYDTIDHFEIDPHFGTKADFQALVDGAHARGMRVMLDAVFNHFGEQSPQWQDVIKNGEQSRFADWFHIHGWPVGRDPKTKRLNYETFATGAAMPKVNTQNPAVQAYLIDVTKYWIEQFGIDAWRFDVADEVDHGFWRALCGALRAIKPDVYLLGESWHSSQSLVGNGQFNAVMNYPLTQPILALFNGQLNPEDYVGKTNLELMMYRQPNQQAMFNALDTHDTPRLLTTLHGQLTKFKSALTLLMLLPGSPCIYYGTEVAMAGGADPDNRRCMNWQPDEQEQQVRQFVTRLIKFRRQQADFLATSQLTWTIDGHCLILTRTDVEQTIQGRFNLGAQAVSTVSGVSPILTAGITANEMAPGGFELTVA
notes: gene 1722 bp
For B1, the Km stood at 620 ± 120 µM, the Vmax worked out at 0.016 µmol/min and the kcat was determined as 4.9142 ± 1.67e-05 s⁻¹.

B2: Lp_0179 (Amy2), maltose-forming α-amylase (Lactiplantibacillus plantarum WCFS1) (protein)
chain: MARDTQTQLRNEMIYSVFVRNYSEAGNFAGVTADLQRIKDLGTDILWLLPINPIGEVNRKGTLGSPYAIKDYRGINPEYGTLADFKALTDRAHELGMKVMLDIVYNHTSPDSVLATEHPEWFYHDADGQLTNKVGDWSDVKDLDYGHHELWQYQIDTLLYWSQFVDGYRCDVAPLVPLDFWLEARKQVNAKYPETLWLAESAGSGFIEELRSQGYTGLSDSELYQAFDMTYDYDVFGDFKDYWQGRSTVERYVDLLQRQDATFPGNYVKMRFLENHDNARMMSLMHSKAEAVNNLTWIFMQRGIPLIYNGQEFLAEHQPSLFDRDTMVADRHGDVTPLIQKLVTIKQLPLLRAADYQLAVVEEGIVKITYRAAGEALTAWIPLKGQVTAVATKLAAGSYQNLLTDGPTEVVDGKLTVDGQPVLIKYVTNTAVTKVADQSN
notes: gene 1320 bp
On to B2, for which the Km was found to be 320 ± 70 µM, the Vmax amounted to 0.017 µmol/min and the kcat was 3.856 ± 3.33e-05 s⁻¹.

Values taken from PMC6815381, “Unravelling the diversity of glycoside hydrolase family 13 α-amylases from Lactobacillus plantarum WCFS1” (Microbial Cell Factories, 2019).
